Results taken from IntAct's records for PubMed 38057552.

B1: Sodium/glucose cotransporter 2 (Homo sapiens), P31639 (parent)
chain: MEEHTEAGSAPEMGAQKALIDNPADILVIAAYFLLVIGVGLWSMCRTNRGTVGGYFLAGRSMVWWPVGASLFASNIGSGHFVGLAGTGAASGLAVAGFEWNALFVVLLLGWLFAPVYLTAGVITMPQYLRKRFGGRRIRLYLSVLSLFLYIFTKISVDMFSGAVFIQQALGWNIYASVIALLGITMIYTVTGGLAALMYTDTVQTFVILGGACILMGYAFHEVGGYSGLFDKYLGAATSLTVSEDPAVGNISSFCYRPRPDSYHLLRHPVTGDLPWPALLLGLTIVSGWYWCSDQVIVQRCLAGKSLTHIKAGCILCGYLKLTPMFLMVMPGMISRILYPDEVACVVPEVCRRVCGTEVGCSNIAYPRLVVKLMPNGLRGLMLAVMLAALMSSLASIFNSSSTLFTMDIYTRLRPRAGDRELLLVGRLWVVFIVVVSVAWLPVVQAAQGGQLFDYIQAVSSYLAPPVSAVFVLALFVPRVNEQGAFWGLIGGLLMGLARLIPEFSFGSGSCVQPSACPAFLCGVHYLYFAIVLFFCSGLLTLTVSLCTAPIPRKHLHRLVFSLRHSKEEREDLDADEQQGSSLPVQNGCPESAMEMNEPQAPAPSLFRQCLLWFCGMSRGGVGSPPPLTQEEAAAAARRLEDISEDPSWARVVNLNALLMMAVAVFLWGFYA
partner: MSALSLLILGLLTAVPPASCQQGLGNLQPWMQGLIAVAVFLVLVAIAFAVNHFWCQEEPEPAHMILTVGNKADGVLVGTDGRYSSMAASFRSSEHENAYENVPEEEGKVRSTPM

Variants of: B1
Conditions: with pdz1i_human PDZK1IP1, Q13113

| effect of a mutation on the interaction | Variant |
| --- | --- |
| with no effect | F98A |
| with no effect | S74A |
| with no effect | D201A |
